Test results as given in publication PMC4091690, “A Broadly Conserved G-Protein-Coupled Receptor Kinase Phosphorylation Mechanism Controls Drosophila Smoothened Activity” (PLoS Genetics, 2014).

T1: Smo^core (Drosophila Smoothened amino acids 1-663), C-terminally tagged with GFP10 (Drosophila, UniProt P91682 32-663)
T1 construct: signal peptide in the construct; Smoothened (Smo), Drosophila melanogaster, amino acids 1-663, truncated just after the third Gprk2 phosphorylation cluster; also called Smo^core-GFP10; source: S2-R+ cells, transfected (pRmHa3.puro, induced with CuSO4), in intact cells; not shown: GFP10, C-terminal, kept
T1 sequence (looked up): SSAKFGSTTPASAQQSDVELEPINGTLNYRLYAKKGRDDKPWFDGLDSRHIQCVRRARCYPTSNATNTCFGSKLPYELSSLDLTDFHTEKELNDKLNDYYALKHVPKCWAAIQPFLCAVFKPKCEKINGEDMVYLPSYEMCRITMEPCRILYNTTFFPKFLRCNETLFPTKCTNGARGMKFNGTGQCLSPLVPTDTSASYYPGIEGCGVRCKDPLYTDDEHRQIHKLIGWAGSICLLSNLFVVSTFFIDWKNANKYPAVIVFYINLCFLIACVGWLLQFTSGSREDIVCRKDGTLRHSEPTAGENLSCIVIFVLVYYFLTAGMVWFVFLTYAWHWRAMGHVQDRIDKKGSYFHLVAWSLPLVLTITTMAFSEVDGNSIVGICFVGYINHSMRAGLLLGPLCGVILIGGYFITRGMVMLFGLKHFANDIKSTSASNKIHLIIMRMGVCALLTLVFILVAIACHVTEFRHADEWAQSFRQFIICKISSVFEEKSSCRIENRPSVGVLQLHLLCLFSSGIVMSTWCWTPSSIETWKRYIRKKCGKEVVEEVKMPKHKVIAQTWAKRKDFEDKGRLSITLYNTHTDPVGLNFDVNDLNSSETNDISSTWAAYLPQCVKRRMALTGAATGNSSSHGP


Key:
[1] = biological target: Smo^SD.c12D (Smo^SD with Gprk2 phosphorylation clusters 1 and 2 changed to Asp), C-terminally tagged with GFP10 or RLucII (UniProt P91682); assay: BRET; conditions: S2 cells, Luc + GFP10 tagged pair, read off a plot
[2] = biological target: T1, Smo^core (Drosophila Smoothened amino …); assay: FRET or BRET; BRET in intact S2-R+ cells between C-terminally GFP10-tagged truncated Smo variants (300 ng) and Cos2-RLucII (75 ng), myc-Fu (75 ng) co-transfected; cells treated with control (beta-gal), gprk2 or smo 3'UTR dsRNA, without or with myc-Gprk2; net BRET; conditions: partners not purified

Row | response ([1]; dsRNA targeting β-gal (control), parent: est. 100) | response ([1]; gprk2 dsRNA, parent: est. 67) | fold increase of net BRET on Gprk2 overexpression against control cells [2] [fold] | Molecule
1 | 170 | 160 | – | Smo^SD (PKA- and CKI-phosphomimetic form of Drosophila Smoothened), C-terminally tagged with GFP10 or Renilla luciferase II (from UniProt P91682) S604D; T606D; T610D; T612D; S626D; S627D; T629D; S633D; S634D; T635D
2 | – | – | > 2.2 | Costal-2 (Cos2), C-terminally tagged with Renilla luciferase II (natural protein, Drosophila, UniProt O16844 1-1201, looked up, Costal-2 (Cos2), kinesin-like protein, Drosophila; also called Cos2-Luc; Cos2-RLucII; source: S2-R+ cells, transfected (pRmHa3.puro, induced with CuSO4), in intact cells; not shown: RLucII, C-terminal, kept) MEIPIQVAVRIFPHRELKDLLRSFGPTEPKKDAQAVDEGADSKDSEAQVPAAEKDNPSISETDPNGNAEQDSAADSKTIPDANGNDSGQKDYPDSAYCVQAIPISASALGLPSALPGGDPMDSIAAGLIQVGPHTVPVTHALPSSSSQEQVYHQTVFPLITLFLEGFDASVVTYGQRGQGKSYTLYGNVQDPTLTDSTEGVVQLCVRDIFSHISLHPERTYAINVGFVEICGGDVCDLLGMGNIHCTNVDAVFHWLQVGLSARQSLPAHTLFTLTLEQQWVSKEGLLQHRLSTASFSDLCGTERCGDQPPGRPLDAGLCMLEQVISTLTDPGLMYGVNGNIPYGQTTLTTLLKDSFGGRAQTLVILCVSPLEEHLPETLGNLQFAFKVQCVRNFVIMNTYSDDNTMIVQPAEPVPESNSSAGPLSQAGPGDNFGLQFAASQWSKLVTNAEGLFSKLIDSKLITEVEKEQIEEWLFLKQECEECLSSTEAMRQQKQLVPILEAEEPEDVNSEAANSESPNSDNENDTDNESHRPDLDDKIESLMEEFRDKTDALILEKHAEYLSKHPKAVMQSQDREIEAQPPEENGDDRKVSIGSRRRSVQPGASLSTAELAMLNRVASQQPPPPIDPESVVDPLESSSGEGIRQAALAAAAATAPIEQLQKKLRKLVAEIEGKQRQLREIEETIQVKQNIIAELVKNSDTRSHAKQRFHKKRAKLEAECDKAKKQLGKALVQGRDQSEIERWTTIIGHLERRLEDLSSMKHIAGESGQKVKKLQQSVGESRKQADDLQKKLRKECKLRCQMEAELAKLRESRETGKELVKAQGSPEQQGRQLKAVQARITHLNHILREKSDNLEEQPGPEQQETLRHEIRNLRGTRDLLLEERCHLDRKLKRDKVLTQKEERKLLECDEAIEAIDAAIEFKNEMITGHRSIDTSDRIQREKGEQMLMARLNRLSTEEMRTLLYKYFTKVIDLRDSSRKLELQLVQLERERDAWEWKERVLSNAVRQARLEGERNAVLLQRQHEMKLTLMLRHMAEETSASSASYGERALAPACVAPPVQASSDFDYDHFYKGGGNPSKALIKAPKPMPTGSALDKYKDKEQRSGRNIFAKFHVLTRYASAAAAGSSGSTAEESTALIESTTTATATTTSTTTTGAVGKVKDKALVSFRPEQLKRLMPAPTATKVTRQKNKIIIQDASRRN
